# Assay results as given in IntAct's records for PubMed 20723758.
# B1: Epidermal growth factor receptor (Drosophila melanogaster (Fruit fly)), P04412 (parent)
# chain: MLLRRRNGPCPFPLLLLLLAHCICIWPASAARDRYARQNNRQRHQDIDRDRDRDRFLYRSSSAQNRQRGGANFALGLGANGVTIPTSLEDKNKNEFVKGKICIGTKSRLSVPSNKEHHYRNLRDRYTNCTYVDGNLKLTWLPNENLDLSFLDNIREVTGYILISHVDVKKVVFPKLQIIRGRTLFSLSVEEEKYALFVTYSKMYTLEIPDLRDVLNGQVGFHNNYNLCHMRTIQWSEIVSNGTDAYYNYDFTAPERECPKCHESCTHGCWGEGPKNCQKFSKLTCSPQCAGGRCYGPKPRECCHLFCAGGCTGPTQKDCIACKNFFDEAVSKEECPPMRKYNPTTYVLETNPEGKYAYGATCVKECPGHLLRDNGACVRSCPQDKMDKGGECVPCNGPCPKTCPGVTVLHAGNIDSFRNCTVIDGNIRILDQTFSGFQDVYANYTMGPRYIPLDPERREVFSTVKEITGYLNIEGTHPQFRNLSYFRNLETIHGRQLMESMFAALAIVKSSLYSLEMRNLKQISSGSVVIQHNRDLCYVSNIRWPAIQKEPEQKVWVNENLRADLCEKNGTICSDQCNEDGCWGAGTDQCLTCKNFNFNGTCIADCGYISNAYKFDNRTCKICHPECRTCNGAGADHCQECVHVRDGQHCVSECPKNKYNDRGVCRECHATCDGCTGPKDTIGIGACTTCNLAIINNDATVKRCLLKDDKCPDGYFWEYVHPQEQGSLKPLAGRAVCRKCHPLCELCTNYGYHEQVCSKCTHYKRREQCETECPADHYTDEEQRECFQRHPECNGCTGPGADDCKSCRNFKLFDANETGPYVNSTMFNCTSKCPLEMRHVNYQYTAIGPYCAASPPRSSKITANLDVNMIFIITGAVLVPTICILCVVTYICRQKQKAKKETVKMTMALSGCEDSEPLRPSNIGANLCKLRIVKDAELRKGGVLGMGAFGRVYKGVWVPEGENVKIPVAIKELLKSTGAESSEEFLREAYIMASEEHVNLLKLLAVCMSSQMMLITQLMPLGCLLDYVRNNRDKIGSKALLNWSTQIAKGMSYLEEKRLVHRDLAARNVLVQTPSLVKITDFGLAKLLSSDSNEYKAAGGKMPIKWLALECIRNRVFTSKSDVWAFGVTIWELLTFGQRPHENIPAKDIPDLIEVGLKLEQPEICSLDIYCTLLSCWHLDAAMRPTFKQLTTVFAEFARDPGRYLAIPGDKFTRLPAYTSQDEKDLIRKLAPTTDGSEAIAKPDDYLQPKAAPGPSHRTDCTDEMPKLNRYCKDPSNKNSSTGDDERDSSAREVGVGNLRLDLPVDEDDYLMPTCQPGPNNNNNMNNPNQNNMAAVGVAAGYMDLIGVPVSVDNPEYLLNAQTLGVGESPIPTQTIGIPVMGGPGTMEVKVPMPGSEPTSSDHEYYNDTQRELQPLHRNRNTETRV
# partner: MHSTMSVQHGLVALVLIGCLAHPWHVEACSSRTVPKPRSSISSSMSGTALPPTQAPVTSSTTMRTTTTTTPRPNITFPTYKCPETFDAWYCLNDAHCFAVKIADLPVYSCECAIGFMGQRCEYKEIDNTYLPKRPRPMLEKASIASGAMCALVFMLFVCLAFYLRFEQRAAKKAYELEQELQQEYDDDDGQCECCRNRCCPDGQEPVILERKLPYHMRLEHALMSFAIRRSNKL
# Variants of: B1
# Details: with spitz_drome spi
row,effect of a mutation on the interaction,Variant
1,decreasing interaction,Y341E;N342A;T344D;Y346E;V347A;L348D
